{"source": "patent US20100226906", "proteins": {"B1": {"name": "recombinant poly-γ-glutamate hydrolase (PghP) of bacteriophage φNIT1 (protein)", "chain": "MAQTDTYPNIEALENAETVGVAYNIEVKRQNPSMIYFSPHAGGIEVGTTELIYRVVELTGGSLYLFQGLLPSGNSRLHVTSTHFDEPMAVCMLSKHTDAVSFHGYKDDYNKNTLVGGLNTELRNLIVSKLNSKGIAAEVATDRFTATDPDNIVNRCASGKGVQLEISSAQRRAFFQNNDWSKANRGNVTQEFLDYAEAIKEAEAEYYG"}}, "key": {"[1]": {"target": "T1, synthetic gamma poly-glutamate 30mer containing both D- and L-glutamate (15 D- and 15 L-residues) (not fully specified)", "T1 chain": "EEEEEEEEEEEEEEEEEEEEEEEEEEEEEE"}, "[2]": {"target": "T2, synthetic gamma poly-glutamate peptide of 30 D-glutamate residues", "T2 chain": "T1 chain"}, "[3]": {"target": "T3, synthetic gamma poly-glutamate peptide of 30 L-glutamate residues", "T3 chain": "T1 chain"}}}
{"protein": "B1", "values": [{"measurement": "hydrolysis of synthetic 30mer (digestion with purified enzyme, SDS tricine PAGE)", "setting": "[1]", "value": "complete hydrolysis of L- and 30mers containing both D- and L-was observed"}, {"measurement": "hydrolysis of synthetic 30mer (digestion with purified enzyme, SDS tricine PAGE)", "setting": "[2]", "value": "No hydrolysis of the D-polyglutamate was seen"}, {"measurement": "hydrolysis of synthetic 30mer (digestion with purified enzyme, SDS tricine PAGE)", "setting": "[3]", "value": "complete hydrolysis of L- and 30mers containing both D- and L-was observed"}]}
